Results: patent US20260248940A1, “Antibody-Drug Conjugates and Uses Thereof” (Vivasor, Inc., priority 2023, published 2026)

What was measured:
[1] = tested on: Calu6 (B7-H3+) cells; assay: Cell viability assay (CellTiter-Glo 2.0, 120-hour) in Calu6 cells; format: cell-based; conditions: Homo sapiens, Calu-6; Table 4A; Calu6, B7-H3 positive; 120-hour treatment
[2] = tested on: NCI-H929 (B7-H3−) cells; assay: Cell viability assay (CellTiter-Glo 2.0, 120-hour) in NCI-H929 cells; format: cell-based; conditions: Homo sapiens; Table 4A; NCI-H929, B7-H3 negative; 120-hour treatment
[3] = tested on: Hs700T (B7-H3+) cells; assay: Cell viability assay (CellTiter-Glo 2.0, 120-hour) in Hs700T cells; format: cell-based; conditions: Homo sapiens, Hs 700T, Table 4A, B7-H3 positive, 120-hour treatment
[4] = tested on: PA-1 (B7-H3+) cells; assay: Cell viability assay (CellTiter-Glo 2.0, 120-hour) in PA-1 cells; format: cell-based; conditions: Homo sapiens; Table 4A; PA-1, B7-H3 positive; 120-hour treatment
[5] = tested on: U2OS (B7-H3+) cells; assay: Cell viability assay (CellTiter-Glo 2.0, 120-hour) in U2OS cells; format: cell-based; conditions: Homo sapiens, Table 4A, B7-H3 positive, 120-hour treatment
[6] = tested on: B7-H3-expressing renal cell and bladder carcinoma; conditions: Loo et al., 2012; cited from earlier work
[7] = cynomolgus monkeys; Loo et al., 2012; cited from earlier work
[8] = target: T1, human B7-H3 protein (human, UniProt Q5ZPR3 29-534); assay: flow cytometry on U2OS cells, PE-labelled goat anti-human secondary antibody, geometric mean fluorescence
T1 construct: Endogenous B7-H3 on human cancer cell lines; also called CD276; B7-H3 receptor
T1 sequence: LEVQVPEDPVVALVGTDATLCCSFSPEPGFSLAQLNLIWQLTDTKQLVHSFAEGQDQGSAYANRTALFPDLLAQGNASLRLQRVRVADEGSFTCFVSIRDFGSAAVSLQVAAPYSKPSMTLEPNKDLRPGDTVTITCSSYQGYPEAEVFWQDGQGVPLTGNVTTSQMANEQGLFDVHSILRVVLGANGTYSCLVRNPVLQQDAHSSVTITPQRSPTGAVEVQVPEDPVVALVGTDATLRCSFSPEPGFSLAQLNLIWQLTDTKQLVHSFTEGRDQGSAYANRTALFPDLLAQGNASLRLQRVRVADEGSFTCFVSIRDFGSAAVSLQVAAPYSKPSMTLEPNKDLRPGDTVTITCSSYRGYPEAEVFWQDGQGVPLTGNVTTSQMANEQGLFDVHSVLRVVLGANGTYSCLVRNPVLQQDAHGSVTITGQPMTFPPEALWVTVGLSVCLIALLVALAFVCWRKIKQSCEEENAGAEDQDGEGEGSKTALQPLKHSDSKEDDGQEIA
Experimental: (§1) B7-H3 binding: Tumor cell cultures were harvested by non-enzymatic cell dissociation and plated in RPMI1640 supplemented with 10% fetal bovine serum (FBS) in a 96 well plate. A dilution curve of B7H3 antibody was prepared as a 2× solution and added to each well and incubated at 4C for 1 hour. The cells were washed with PBS+2% FBS+5 mM EDTA (FACS Buffer) before incubation with R-Phycoerythrin labeled goat anti-human secondary antibody for 1 hour at 4C. Cells were washed with FACS buffer and analyzed by flow cytometry.

[9] = target: T1, human B7-H3 protein; assay: flow cytometry on HCT-116 cells, PE-labelled goat anti-human secondary antibody, geometric mean fluorescence
Experimental: as §1

[10] = target: T1, human B7-H3 protein; assay: flow cytometry on MDA-MB-231 cells, PE-labelled goat anti-human secondary antibody, geometric mean fluorescence
Experimental: as §1

[11] = target: T1, human B7-H3 protein; assay: flow cytometry on FaDu cells, PE-labelled goat anti-human secondary antibody, geometric mean fluorescence
Experimental: as §1

[12] = target: T1, human B7-H3 protein; assay: flow cytometry on Hs700T cells, PE-labelled goat anti-human secondary antibody, geometric mean fluorescence
Experimental: as §1

[13] = target: T1, human B7-H3 protein; assay: flow cytometry on SkNBE(2) cells, PE-labelled goat anti-human secondary antibody, geometric mean fluorescence
Experimental: as §1

[14] = target: T1, human B7-H3 protein; assay: flow cytometry on A549 cells, PE-labelled goat anti-human secondary antibody, geometric mean fluorescence
Experimental: as §1

`CC[C@@]1(O)C(=O)OCc2c1cc1n(c2=O)Cc2c-1nc1cc(F)c(C)c3c1c2[C@@H](NC(=O)CO)CC3` [Dxd] showed an EC50 [1] of 7 nM, an EC50 [2] of 4.7 nM and an EC50 [3] of 43.9 nM. It also gave an EC50 [4] of 2 nM and an EC50 [5] of 337 nM.

B1: Enoblituzumab (antibody, chains of the INN, looked up)
heavy: EVQLVESGGGLVQPGGSLRLSCAASGFTFSSFGMHWVRQAPGKGLEWVAYISSDSSAIYYADTVKGRFTISRDNAKNSLYLQMNSLRDEDTAVYYCGRGRENIYYGSRLDYWGQGTTVTVSSASTKGPSVFPLAPSSKSTSGGTAALGCLVKDYFPEPVTVSWNSGALTSGVHTFPAVLQSSGLYSLSSVVTVPSSSLGTQTYICNVNHKPSNTKVDKRVEPKSCDKTHTCPPCPAPELVGGPSVFLLPPKPKDTLMISRTPEVTCVVVDVSHEDPEVKFNWYVDGVEVHNAKTKPPEEQYNSTLRVVSVLTVLHQDWLNGKEYKCKVSNKALPAPIEKTISKAKGQPREPQVYTLPPSREEMTKNQVSLTCLVKGFYPSDIAVEWESNGQPENNYKTTPLVLDSDGSFFLYSKLTVDKSRWQQGNVFSCSVMHEALHNHYTQKSLSLSPG
light: DIQLTQSPSFLSASVGDRVTITCKASQNVDTNVAWYQQKPGKAPKALIYSASYRYSGVPSRFSGSGSGTDFTLTISSLQPEDFATYYCQQYNNYPFTFGQGTKLEIKRTVAAPSVFIFPPSDEQLKSGTASVVCLLNNFYPREAKVQWKVDNALQSGNSQESVTEQDSKDSTYSLSSTLTLSKADYEKHKVYACEVTHQGLSSPVTKSFNRGEC
notes: "Enoblituzumab (MGA271; from Macrogenics), a humanized mAb targeting B7-H3"
For B1, the “antitumor activity in xenograft models” value [6] is given as “potent antitumor activity” and the “safety findings in toxicology studies” value [7] is given as “no significant safety findings”.

B2: anti-B7-H3 antibody (B7-H3 VA clone) (antibody, V domains shown)
VH: QVQLVQSGAEVKKPGASVKVSCKASGYTFTDSYMHWVRQAPGQGLEWMGWISPRTGGTDYAQKFQGRVTMTRDTSISTAYMELSRLRSDDTAVYYCARGSSRGNDYWGQGTLVTVSS
VL: QSVLTQPASVSGSPGQSITISCTGTGSDVGGYNYVSWYQQHPGKAPKLIIYDVTKRPSGFSNRFSGSKSGNTASLTISGLQAEDEADYYCSSYTSRRTYVFGTGTKLTVL
notes: IgG/IgG1 appears only as an embodiment; It was detected with a goat anti-human secondary antibody; also called anti-B7H3 VA clone; Sorrento's VA clone
For B2, the “EC50 (read off the curve)” value [8] was roughly 0.3 nM, the Kd [8] was 0.257 nM and the Kd [9] was 0.238 nM. For the same molecule, the Kd [10] was 0.168 nM, the “EC50 (read off the curve)” value [11] was roughly 0.2 nM and the Kd [11] was 0.2 nM. For the same molecule, the “EC50 (read off the curve)” value [12] was roughly 0.5 nM, the Kd [12] was 0.485 nM and the Kd [13] was 0.0968 nM. It also gave a Kd [14] of 0.192 nM.
